Reference: patent US20230331820A1 (GlaxoSmithKline, published 2023)
Where two headings read alike, the source gives them in different places.

How the values were obtained:
[1] = target: gEgI mutant (P317R): HSV2 gEgI mutant heterodimer comprising gE and gI ectodomains with mutation P317R in gE (HSV2, UniProt P89475 21-416; P06764 21-256); experiment: ELISA, supernatant
[2] = target: gEgI mutant (P319D): HSV2 gEgI mutant heterodimer comprising gE and gI ectodomains with mutation P319D in gE (HSV2, UniProt P89475 21-416; P06764 21-256); experiment: ELISA, supernatant
[3] = target: gEgI mutant (338): HSV2 gEgI mutant heterodimer comprising gE and gI ectodomains with insertion of a (HSV2, UniProt P89475 21-416; P06764 21-256); experiment: ELISA, supernatant
[4] = target: T1, gE WT: HSV2 gE wildtype ectodomain (HSV2, UniProt P89475 21-416); experiment: ELISA, supernatant
[5] = target: gEgI mutant (R320D): HSV2 gEgI mutant heterodimer comprising gE and gI ectodomains with mutation R320D in gE (HSV2, UniProt P89475 21-416; P06764 21-256); experiment: ELISA, supernatant
[6] = target: T2, gI WT: HSV2 gI wildtype ectodomain (HSV2, UniProt P06764 21-256); experiment: ELISA, supernatant
[7] = target: T3, gEgI WT: HSV2 gEgI heterodimer comprising gE and gI wildtype ectodomains (HSV2, UniProt P89475 21-416; P06764 21-256); experiment: ELISA, supernatant
[8] = target: T1, gE WT: HSV2 gE wildtype ectodomain; experiment: ELISA, supernatant; remark: listed apart in the source
[9] = target: T2, gI WT: HSV2 gI wildtype ectodomain; experiment: ELISA, supernatant; remark: listed apart in the source
[10] = target: T3, gEgI WT: HSV2 gEgI heterodimer …; experiment: SPR binning; gEgI captured by mAb 45
[11] = target: T3, gEgI WT: HSV2 gEgI heterodimer …; experiment: SPR binning; gEgI captured by mAb 39
[12] = target: T3, gEgI WT: HSV2 gEgI heterodimer …; experiment: SPR binning; gEgI captured by mAb 42
[13] = target: T3, gEgI WT: HSV2 gEgI heterodimer …; experiment: SPR binning; gEgI captured by mAb 10
[14] = target: T3, gEgI WT: HSV2 gEgI heterodimer …; experiment: SPR binning; gEgI captured by mAb 20
[15] = target: T3, gEgI WT: HSV2 gEgI heterodimer …; experiment: SPR binning; gEgI captured by mAb 15
[16] = target: T3, gEgI WT: HSV2 gEgI heterodimer …; experiment: SPR binning; gEgI captured by mAb 40
[17] = target: T3, gEgI WT: HSV2 gEgI heterodimer …; experiment: SPR binning; gEgI captured by mAb 17
[18] = target: T3, gEgI WT: HSV2 gEgI heterodimer …; experiment: SPR binning; gEgI captured by mAb 24
[19] = target: T3, gEgI WT: HSV2 gEgI heterodimer …; experiment: SPR binning; gEgI captured by mAb 9
[20] = target: T3, gEgI WT: HSV2 gEgI heterodimer …; experiment: SPR binning; gEgI captured by mAb 34
[21] = target: T3, gEgI WT: HSV2 gEgI heterodimer …; experiment: SPR binning; gEgI captured by mAb 5
[22] = target: T3, gEgI WT: HSV2 gEgI heterodimer …; experiment: SPR binning; gEgI captured by mAb 19
[23] = target: T3, gEgI WT: HSV2 gEgI heterodimer …; experiment: Biacore SPR, gEgI HEK BMP1063 at 10 µg/ml for 180 s over the mAb
[24] = target: T3, gEgI WT: HSV2 gEgI heterodimer …; experiment: Biacore SPR, gEgI CHO BMP1181 at 10 µg/ml for 180 s over the mAb

B1: mAb clone 35, 36 (antibody, V domains shown)
VH: QVQLKESGPGLVAPSQSLSITCTVSGFSLTSYGVHWVRQPPGKGLEWLGVIWAGGSTNYNSALMSRLSISKDNSKSQVFLKMNSLQTDDTAMYYCATDGYKFFYYAMDYWGQGTSVTVSS
VL: DIVMTQAAPSVPVTPGESVSISCRSSKSLLHSNGNTYLYWFLQRPGQSPQLLIYRMSNLASGVPDRFSGSGSGTAFTLRISRVEAEDVGVYYCMQHLEYPFTFGSGTKLEIK
binding result [1]: binds
binding result [2]: binds
binding result [3]: binds
binding result [4]: binds
binding result [5]: binds
binding result [6]: binds
binding result [7]: binds

B2: mAb clone 39 (antibody, V domains shown)
VH: EVKLVESGGGLVQPGGSLKLSCAASGFTFSSYTMSWVRQTPEKRLEWVAYISNGGGSTYYPDTVKGRFTISRDNAKNTLYLQMSSLKSEDTAMYYCARGVSYYGDLYYFDYWGQGTTLTVSS
VL: DVVVTQTPLSLPVSFGDQVSISCRSSQSLANSYGNTYLSWYLHKPGQSPQLLIYGISNRFSGVPDRFSGSGSGTDFTLKISTIKPEDLGMYYCLQGTHQPWTFGGGTKLEIK
binding result [8]: no binding
binding result [9]: no binding
binding result [3]: binds
RU [10]: -5.4 RU
RU [11]: 1.3 RU
RU [12]: 0.1 RU
RU [13]: 2.3 RU
RU [14]: 3.1 RU
RU [15]: -4.8 RU
RU [16]: -1.2 RU
RU [17]: -0.6 RU
RU [18]: -0.9 RU
RU [19]: -1.5 RU
RU [20]: -6.4 RU
RU [21]: 0.6 RU
RU [22]: -7.2 RU

B3: mAb clone 43 (antibody, V domains shown)
VH: DVKLVESGGGLVKPGGSLKLSCAASGFTFSSYTMSWVRQTPEKRLEWVATISSGGSYTYYPDSVKGRFTISRDNAKNTLYLQMSSLKAEDTAMYYCTRGGYGSSFENYFDYWGQGTTLTVSS
VL: DIVMSQSPSSLAVSAGEKVTMSCKSSQSLLNSRTRKNYLAWYQQKPGQSPKLLIYWASTRESGVPDRFTGSGSGTDFTLTISSVQAEDLAVYSCKQSYNLPLTFGAGTKLELK
notes: also called GEGI/43IIa
binding result [9]: no binding
binding result [1]: binds
binding result [2]: binds
binding result [3]: binds
binding result [4]: binds
binding result [5]: binds
binding result [7]: binds

B4: mAb clone 14 (antibody, V domains shown)
VH: QVQLQQSGAELMKPGASVKISCKATGYTFSSYWIEWVKQRPGHGLEWIGEILPGSGSTNYNEKFKGKATFTADTSSNTAYMQLSSLTSEDSAVYYCASGSAGNYYGSSYEAMDYWGQGTSVTVSS
VL: DIVLTQSPASLAVSLGQRATISCRASKSVSTSGYSYMHWYQQKPGQPPKLLIYLASNLESGVPARFSGSGSGTDFTLNIHPVEEEDAATYYCQHSRELPLTFGAGTKLELK
notes: also called GEGI/14IIa
binding result [9]: no binding
binding result [1]: binds
binding result [2]: binds
binding result [3]: binds
binding result [4]: binds
binding result [5]: binds
binding result [7]: binds

B5: mAb clone 34 (antibody, V domains shown)
VH: EVKLVESGGGLVQPGGSLKLSCATSGFTFSDYYMYWVRQTPEKRLEWVAYISNGGDSTYYPDTVKGRFTISRDNAKNTLYLQMSRLKSEDTAMYYCARSYYGNPFPYWGQGTLVTVSA
VL: ENVLTQSPAIMSASPGEKVTMTCRASSSVSSSYLHWYQQKSGASPKLWIYSTSNLASGVPARFSGSGSGTSYSLTISSVEAEDAATYYCQQYSGYPLTFGAGTKLELK
RU Ag/250 RU mAbs [23]: 14.4 RU Ag/250 RU mAbs
binding result [9]: no binding
binding result [3]: binds
binding result [4]: no binding
RU [10]: -6.3 RU
RU [11]: -1.5 RU
RU [12]: -2.4 RU
RU [13]: 1.3 RU
RU Ag/250 RU mAbs [24]: 12.8 RU Ag/250 RU mAbs
RU [14]: 0.4 RU
RU [15]: -2.7 RU
RU [16]: -4.1 RU
RU [17]: -3.3 RU
RU [18]: -3.6 RU
RU [19]: -3.9 RU
RU [20]: -11.1 RU
RU [21]: -2.1 RU
RU [22]: -8.4 RU

B6: mAb clone 19 (antibody, V domains shown)
VH: QVQLQQSGAELVRPGVSVKISCKGSGYTFTDYAMHWVKQSHAKSLEWIGVISTYYGDARYNQKFKGKATMTVDKSSSTAYMELARLTSEDSAIYYCARRGITVVADYAMDYWGQGTSVTVSS
VL: QIVLTQSPAIMSASPGEKVTMSCSASSSVTYMHWYQQKSGTSPKRWIYDTSKLASGVPARFSGSGSGTSYSLTISSMEAEDAATYYCQQWSSNPPTFGGGTKLEIK
RU Ag/250 RU mAbs [23]: 7.88 RU Ag/250 RU mAbs
binding result [3]: binds
binding result [4]: no binding
binding result [6]: no binding
RU [10]: 9.2 RU
RU [11]: 16.2 RU
RU [12]: 16.3 RU
RU [13]: 24.4 RU
RU Ag/250 RU mAbs [24]: 6.49 RU Ag/250 RU mAbs
RU [14]: 9 RU
RU [15]: 23 RU
RU [16]: 13.9 RU
RU [17]: 18.1 RU
RU [18]: 3.2 RU
RU [19]: 6.4 RU
RU [20]: 9.3 RU
RU [21]: 17.2 RU
RU [22]: -3.4 RU

B7: mAb clone 44 (antibody, V domains shown)
VH: EVQLQQSGPELEKPGASVKISCKASGYSFTGYNMNWVKQSNGKSLEWIGNIDPYYGGIRYNQKFKGKATLTVDKSSSTAYMQLKSLTSEDSAVYYCAREDRYLVHYYAMDYWGQGTSVTVSS
VL: QIVLTQSPAIMSASPGEKVTMTCSASSSISYMHWYQQKPGTSPKRWIYDTSKLASGVPARFSGSGSGTSYSLTISSMEAEDAATYYCHQRSSYPYTFGGGTKLEIK
binding result [1]: binds
binding result [2]: binds
binding result [3]: binds
binding result [4]: binds
binding result [5]: binds
binding result [6]: binds
binding result [7]: binds

B8: mAb clone 47 (antibody, V domains shown)
VH: EVKLVESGGGLVQPGGSLRLSCATSGFTFTDYYMSWVRQPPGKALEWLGFIRNKANGYTTEYSASVKGRFTISRDNSQSILYLQMNTLRAEDSATYYCARDRPGFDYWGQGTTLTVSS
VL: NIVLTQSPASLAVSLGQRATISCRASESVDSFGNSFMHWYQQKPGQPPKLLIYLASNLESGVPARFSGSGSRTDFTLTIDPVEADDAATYYCQQNNEDPPWTFGGGTKLEIK
binding result [9]: no binding
binding result [1]: no binding
binding result [2]: no binding
binding result [3]: no binding
binding result [4]: binds
binding result [5]: no binding
binding result [7]: binds
